Experimental data reported in PMC6114939.
One block for each substance: values may come before it.

Experiments:
p85α [1] = target: p85α (UniProt P27986); experiment: co-immunoprecipitation, immunoblot; conditions: sites Y64
p85α [2] = target: p85α (UniProt P27986); experiment: His beads pull-down after kinase assay; conditions: reference: WT His-PFKP with GST-EGFR; sites Y64

binding against the reference (p85α [1]; reference: WT Flag-rPFKP): lost
Substance: PFKP (platelet isoform of phosphofructokinase 1) (from UniProt Q01813) Flag-rPFKP Y64F

binding against the reference (p85α [2]): lost
Substance: PFKP (platelet isoform of phosphofructokinase 1) (from UniProt Q01813) His-PFKP Y64F with GST-EGFR

binding against the reference (p85α [1]; reference: wild-type tagged PFKP (presumed)): lost
Substance: PFKP (platelet isoform of phosphofructokinase 1) (from UniProt Q01813) Y64F
